Experimental data published in article PMC10008561, “Molecular mechanism of biased signaling at the kappa opioid receptor” (Nature Communications, 2023).

Target: T1, BRIL-KOR crystallization construct (human kappa-opioid receptor, residues 1-53 replaced by BRIL, C-terminal … (Homo sapiens, I135L | S324C))
T1 chain: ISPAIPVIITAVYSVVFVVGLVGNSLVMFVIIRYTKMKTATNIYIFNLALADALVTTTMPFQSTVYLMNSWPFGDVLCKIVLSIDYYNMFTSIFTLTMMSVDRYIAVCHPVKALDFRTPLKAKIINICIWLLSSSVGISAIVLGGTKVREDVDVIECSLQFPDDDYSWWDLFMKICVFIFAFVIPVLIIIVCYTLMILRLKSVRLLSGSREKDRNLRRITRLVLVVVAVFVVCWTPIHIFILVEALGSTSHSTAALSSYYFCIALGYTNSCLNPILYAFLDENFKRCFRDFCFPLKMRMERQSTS
Assay: cell-based or functional assay

B1: Nb39 (active-state stabilizing nanobody) (VHH)
VHH: QVQLVESGGGLVRPGGSLRLSCVDSERTSYPMGWFRRAPGKEREFVASITWSGIDPTYADSVADRFTTSRDVANNTLYLQMNSLKHEDTAVYYCAARAPVGQSSSPYDYDYWGQGTQVTVS
- increase of the binding affinity of nalfurafine in radioligand competition binding on KOR membranes in the presence of Nb39: 40 fold
